The test has as its target T1, iRFP-pMagH-C-term VHHActin.
T1 construct: not shown: iRFP fluorescent protein of the piRFP construct (Addgene 31857)
In words: inferred from relocalisation of fluorescence in HeLa cells after 488 nm light (nMagH with pMagH).

T1 sequence (chain, as listed by the source): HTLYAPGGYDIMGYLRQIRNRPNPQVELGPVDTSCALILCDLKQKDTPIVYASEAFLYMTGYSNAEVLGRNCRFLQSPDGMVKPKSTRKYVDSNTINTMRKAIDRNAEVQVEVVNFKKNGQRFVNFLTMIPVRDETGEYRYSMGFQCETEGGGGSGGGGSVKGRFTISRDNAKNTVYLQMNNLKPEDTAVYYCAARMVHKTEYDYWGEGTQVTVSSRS

B1: N-term VHHActin-nMagH-mCherry (other)
chain: MAQVQLVESGGGLTQAGGSLRLSCATSGLIFSAFGMGWFRQAPGKEREFVGGINWRGSTNYGDFGGGGSGGGGSHTLYAPGGYDIMGYLDQIGNRPNPQVELGPVDTSCALILCDLKQKDTPIVYASEAFLYMTGYSNAEVLGRNCRFLQSPDGMVKPKSTRKYVDSNTINTIRKAIDRNAEVQVEVVNFKKNGQRFVNFLTIIPVRDETGEYRYSMGFQCETE
notes: not shown: mCherry red fluorescent protein of the pmCherry construct (engineered)
B1: the binding result was “binds”.

(Values after patent US20190092839A1 (INSTITUTE FOR BASIC SCIENCE, published 2019).)
